Laboratory results published in patent US20170052184A1 (published 2017).
Changes are numbered by the printed parent chain.

T1: HCV Core1-169 recombinant antigen (hepatitis C virus (HCV-1), UniProt P26664 1-169)
T1 sequence: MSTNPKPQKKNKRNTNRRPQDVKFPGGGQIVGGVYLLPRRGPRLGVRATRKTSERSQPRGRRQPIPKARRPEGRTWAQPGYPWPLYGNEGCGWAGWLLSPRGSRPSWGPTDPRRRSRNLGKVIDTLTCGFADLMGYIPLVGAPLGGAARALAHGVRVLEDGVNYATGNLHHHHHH

T2: HCV Core1-169 (HCV-1, UniProt P26664 1-169)
T2 construct: also called recombinant HCV core antigen
T2 sequence: T1 sequence

B1: HCV 208A-110 monoclonal antibody (antibody, V domains shown)
VH: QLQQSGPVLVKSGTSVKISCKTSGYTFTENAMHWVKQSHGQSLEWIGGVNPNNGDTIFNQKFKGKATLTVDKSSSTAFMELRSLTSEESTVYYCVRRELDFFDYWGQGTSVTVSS
VL: DIVLTQSPASLAVSLGQRATISCRASQSVSTSRYSYMHWYQQKPGQPPKLLIKYASNLESGVPARFSGSGSGTDFTLNIHPVAEEDTAAYYCQHSWEFPFTFGSGTKLEIKR
B2: HCV 208A-557 monoclonal antibody (antibody, V domains shown)
VH: QGQMQQSGAELVKPGASVKLSCKTSGFTFSSSYISWLKQKPGQSLEWIAWIYAGTGNTNYNQKFTDKAQLTVDTSSSTAYMQLSSLTTEDSAIYYCAISGTGFTYWGQGTLVTVSA
VL: B1 VL with V3A, K49E, A83G, A89T, E97D
B3: HCV 208A-293 monoclonal antibody (antibody, V domains shown)
VH: EVQLQQSGPELVKPGASVKISCKASGFTFTEYAMHWMKQSHGKSLEWIGGINPTNGDAIYNQKFKDKAKLTVDRSSSTAYMELRSLTSDDSALFYCARRELDYFPSWGQGTTLTVSS
VL: B1 VL with A12I, Y34F, M37V, Y40I, A64V, T76I, A83E, A89T, Y91F
B4: 208A-207-271 monoclonal antibody (antibody, V domains shown)
VH: QGQLQQPGAEFVKPGASLKLSCRASGYTFTSYWIHWVKQRPGQGLEWIGEIDPSDSYINQNQKFRGKATLTVDKSSSTAYMELSGLTSEDSAVYYCARHYYGVLDSWGQGTTLTVSS
VL: DIVLTQSPATLSVTPGDRVSLSCRASQRIYNYLHWYQQKSHESPRLLTKYASQSISGIPSRFSGSGSGTDFILTINSVETEDFGMYFCQQSNSWPLTFGAGTKLELRR
B5: HCV 208A-692 monoclonal antibody (antibody, V domains shown)
VH: B2 VH with V12A, Y52F
VL: EVLMTQSPLSLPVSLGDQASISCRSSQSLEHSNGNTYLEWFLQRPGQPPKLLIYKVSSRFSGVPDRFSGSGSGTDFTLKISRVEAEDLGVYYCFQGSHVPFTFGSGTKLAIKR
B6: HCV 208B-911 (antibody, V domains shown)
VH: QVHLQQPGAELVRPGVSVKLSCKASGYTFTTYSINWMKQRPGQGLEWIGNIYPSTSHTNYNQKFRDKATMTVDKSSSTAYMQLSSPTSEDSAVYYCTINAYSMDYWGQGTSVTVSS
VL: QIVLTQSPEIMSASPGEKVTITCSASSSVSFMYWFQQKPGTSPKLWIYITSNLASGVPTRFSGSGSGTSYSLTISRMEAEDAATYYCQQRSSFPYTFGGGTKLEMKR
B7: HCV 208B-672 (antibody, V domains shown)
VH: EVKLVESGGSLVQPGGSLKLSCAASGFNFNTYAMSWVRQTPEKRLEWVAYISNGGGNTYYVDTVKGRFTISRDNAKNTLYLRMSSLKSEDTAMYYCARHGLYWGYSMDYWGQGTSVTVSS
VL: DIQMTQSPSSLSASLGERVSLTCRASQDIGGSINWLQQEPDGTIKRLIYATSSLDSGVPKRFSGSRSGSDYSLTISSLESEDFVDYYCLQYASSPPTFGGGTKLEIKR
B8: HCV 208B-822 (antibody, V domains shown)
VH: QVQLKQSGPGLVQPSQSLSITCTVSGFSLITYGVHWVRQSPGKGLEWLGVIWGGGSTGYNAAFVSRLNITKDNSKSQVFFKMNSLQPDDTAIYYCARNGGATVFDYWGQGTTLTVSS
VL: DIVMTQSPATLSVTPGDRVSLSCRASQTISDYLHWYQQKSHESPRLLIKYASQSISGIPSRFSGSGSGSHFTLSINSVEPEDVGVYYCQNGHSFPWTFGGGTKLEIKR
B9: HCV 208B-826 (antibody, V domains shown)
VH: DVQLVESGGGLVQAGGSRKLSCAASGFPFSSFGMHWVRQAPEKGLEWVASISSRTSKIYYADNLKGRFTISRDNPKNTLFLQMTSLGSEDTAMYYCVRSVFGNSYWFFDVWGAGTTVTVSS
VL: B4 VL
B10: HCV 208A-207 (antibody, V domains shown)
VH: B4 VH
VL: B4 VL
B11: HCV 208B-612 (antibody, V domains shown)
VH: EVQLQQSGPELVKPGASVKMSCKASGYRFTSYVMHWVRQKPGQGLEWIGYIDPHNDDTKYSEKFRGKATLTSDKSSTTAYMELSSLTSEDSAVYYCVRYSYDRDYSPMDYWGQGTSVTVSS
VL: QIVLTQSPTLMSASPGEKVTMTCSASSTVTYIYWYQQKPGSSPRLWMYDTFNLVSGVPARFSGSRSGTSYFLTISSMEGEDAATYYCQQYSDSPYTFGGGTKLEIKR
B12: HCV 208B-793 (antibody, V domains shown)
VH: EVKLVESGGGLVQPGGSLKLSCAASGFTFSSYAMSWVRQTPERRLEWVTYISNGGGSTYYSDTVKGRFTFSRDNAKNTLYLQMSSLKSEDTAMYYCARHGLGRTGFASWGQGTLVTVSA
VL: DIVMTQSHKFMSTSVGDRVSITCKASQDVGTAVAWYQQKPGQSPKLLIYWASTRHTGVPDRFTGSGSGTDFTLTISNVQSEDLADYFCQQYSNYLTFGAGTKLEVKR
B13: HCV 208A-210 (antibody, V domains shown)
VH: QVQLQQSGPELVKPGASMRISCKASGYTFTSYYVHWIKQRPGQGLEWIGCIYPGDVNTDYNEKFKGKATLTADKSSSTAYMQVSTLTSEDSAIYFCVLYYYGSFAYWGQGTLVTVSA
VL: EIVLTQSPAITAASLGQNVTITCRASSSVSYMHWYRQKSGTSPQLWIYEISRRASGVPARFRASGSGTSYSLTISSMEAEDAAIYYCQQWNYPLTFGAGTKLEVKR

target: T1, HCV Core1-169 recombinant antigen; test: sandwich EIA, 25 ng/ml core1-169; capture mAb 208B-1096

Row | Binder | OD492 nm [OD492]
1 | B1 | 0.21
2 | B2 | 0.35
3 | B3 | 0.41
4 | B4 | 0.33
5 | B5 | 0.38

target: T1, HCV Core1-169 recombinant antigen; test: sandwich EIA, 25 ng/ml core1-169; capture mAb 208B-612-226

Row | Binder | OD492 nm [OD492]
6 | B1 | 0.2
7 | B2 | 0.25
8 | B3 | 0.37
9 | B4 | 0.33
10 | B5 | 0.37

target: T1, HCV Core1-169 recombinant antigen; test: sandwich EIA, 25 ng/ml core1-169; capture mAb 208B-395-334

Row | Binder | OD492 nm [OD492]
11 | B1 | 0.22
12 | B2 | 0.28
13 | B3 | 0.44
14 | B4 | 0.37
15 | B5 | 0.44

target: T1, HCV Core1-169 recombinant antigen; test: sandwich EIA, 25 ng/ml core1-169; capture mAb 208A-293

Row | Binder | OD492 nm [OD492]
16 | B1 | 0.2
17 | B2 | 0.41
18 | B3 | 0.49
19 | B4 | 0.42
20 | B5 | 0.51

target: T1, HCV Core1-169 recombinant antigen; test: sandwich EIA, 25 ng/ml core1-169; capture mAb 208A-692

Row | Binder | OD492 nm [OD492]
21 | B1 | 0.14
22 | B2 | 0.13
23 | B3 | 0.34
24 | B4 | 0.42
25 | B5 | 0.35

target: T1, HCV Core1-169 recombinant antigen; test: sandwich EIA, 25 ng/ml core1-169; capture mAb C11-9

Row | Binder | OD492 nm [OD492]
26 | B1 | 0.13
27 | B2 | 0.14
28 | B3 | 2.6
29 | B4 | 2.2
30 | B5 | 2.66

target: T1, HCV Core1-169 recombinant antigen; test: sandwich EIA, 25 ng/ml core1-169; capture mAb 208A-110

Row | Binder | OD492 nm [OD492]
31 | B1 | 0.18
32 | B2 | 0.44
33 | B3 | 0.52
34 | B4 | 0.38
35 | B5 | 0.54

target: T1, HCV Core1-169 recombinant antigen; test: sandwich EIA, 25 ng/ml core1-169; capture mAb 208A-557

Row | Binder | OD492 nm [OD492]
36 | B1 | 0.17
37 | B2 | 0.32
38 | B3 | 0.52
39 | B4 | 0.82
40 | B5 | 0.53

target: T2, HCV Core1-169; test: EIA, core1-169 coated on plate

Row | Binder | OD (A492) [OD]
41 | B6 | 1.18
42 | B7 | 1.77
43 | B8 | 0.22
44 | B9 | 0.65
45 | B10 | 0.11
46 | B11 | 0.18
47 | B12 | 0.85
48 | B13 | 0.87

target: T1, HCV Core1-169 recombinant antigen; test: sandwich EIA, 25 ng/ml core1-169; capture mAb 208A-207-271

Row | Binder | OD492 nm [OD492]
49 | B1 | 0.17
50 | B2 | 0.18
51 | B3 | 0.39
52 | B4 | 0.36
53 | B5 | 0.39

target: T2, HCV Core1-169; test: EIA, core1-169 captured by mAb 14-153-229

Row | Binder | OD (A492) [OD]
54 | B6 | 0.14
55 | B7 | 0.99
56 | B8 | 0.12
57 | B9 | 0.72
58 | B10 | 0.41
59 | B11 | 1.2
60 | B12 | 0.17
61 | B13 | 0.87

target: T1, HCV Core1-169 recombinant antigen; test: sandwich EIA, 25 ng/ml core1-169; capture mAb C11-7

Row | Binder | OD492 nm [OD492]
62 | B1 | 0.18
63 | B2 | 0.22
64 | B3 | 2.87
65 | B4 | 2.47
66 | B5 | 2.92

target: T1, HCV Core1-169 recombinant antigen; test: sandwich EIA, 25 ng/ml core1-169; capture mAb 208B-741

Row | Binder | OD492 nm [OD492]
67 | B1 | 0.2
68 | B2 | 0.38
69 | B3 | 0.5
70 | B4 | 0.3
71 | B5 | 0.44

target: T1, HCV Core1-169 recombinant antigen; test: sandwich EIA, 25 ng/ml core1-169; capture NC capture mAb

Row | Binder | OD492 nm [OD492]
72 | B1 | 0.15
73 | B2 | 0.18
74 | B3 | 0.37
75 | B4 | 0.37
76 | B5 | 0.4
